Here are results for 7 molecules from US20110212843, “STRUCTURE BASED AND COMBINATORIALLY SELECTED OLIGONUCLEOSIDE PHOSPHOROTHIOATE AND PHOSPHORODITHIOATE APTAMER TARGETING AP-1 TRANSCRIPTION FACTORS” (BOARD OF REGENTS, THE UNIVERSITY OF TEXAS SYSTEM, published 2011).

One may read the Kd as the equilibrium constant for the complex coming apart.

Series [1] addresses T1, NF-kB p50 homodimer (UniProt P19838 P19838:1-433). The experiment in a line: resynthesised on bead; text labels it SEQ ID NO 7 but printed sequence differs. Conditions: chain copies: 2 stated. An excerpt: (§1) Sequencing may also be obtained directly from the bead. Each individually selected bead was washed thoroughly with 8 M urea (pH 7.2) to remove the protein and was directly used for the “one-bead one-PCR” amplification using the 5′ and 3′ end primers. The PCR product was cloned using the TA Cloning procedure (Invitrogen) and sequenced on an ABI Prism 310 Genetic Analyzer (Applied Biosystems). The four thioaptamers listed in Table 3 were obtained from the library. […] The fluorescence intensity of all of the beads viewed under the fluorescence microscope was qualitatively similar to the intensity of the selected bead containing this sequence within the combinatorial library. […] Thus, the split synthesis has been used to create a “one-bead-one sequence” ODN and that PCR can be used to identify an S-ODN bound to a bead (Yang et al., 2002; Gorenstein et al, US & Foreign Patents pending, 1999 a, b, 2001, 2002).

The target of a further series is AP-1 c-Jun (Homo sapiens, UniProt P05412 P05412:1-331). The experiment in a line: EMSA; specific binding to recombinant human c-Jun dimers. Conditions: chain copies: 2 stated. For orientation: Mobility shift assays separate free from complexed probe on a gel.
In series [2] the target is T1, NF-kB p50 homodimer. The experiment in a line: bead fluorescence, Alexa Fluor 488-p50; PBS 0.1% Tween 20 wash. Conditions: chain copies: 2 stated. The text has this: (§2) The dsDNA thioaptamer library beads were screened for the ability to bind the NF-κB p50/p50 dimer labeled with the Alexa Fluor 488 dye (Molecular Probes). After initial binding of protein, the beads were thoroughly washed with PBS with 0.1% Tween 20 to minimize nonspecific binding. Typically, a few positive beads were intensely stained when viewed by fluorescence, while the majority of the beads remained unstained as (data not shown). With the aid of a micropipette coupled to a micromanipulator, the intensely stained beads were retrieved. Only highly positive beads from several thousand were found using this method. As described below, multicolor flow cytometry and cell/bead sorting was used to automate the selection process to select the tightest binding thioaptamer-protein complexes.
Sequencing may also be obtained directly from the bead. Each individually selected bead was washed thoroughly with 8 M urea (pH 7.2) to remove the protein and was directly used for the “one-bead one-PCR” amplification using the 5′ and 3′ end primers. The PCR product was cloned using the TA Cloning procedure (Invitrogen) and sequenced on an ABI Prism 310 Genetic Analyzer (Applied Biosystems). […] The fluorescence intensity of all of the beads viewed under the fluorescence microscope was qualitatively similar to the intensity of the selected bead containing this sequence within the combinatorial library. […]

Series [3] addresses T1, NF-kB p50 homodimer. The experiment in a line: bead fluorescence, Alexa Fluor 488-p50. As to conditions: chain copies: 2 stated.
From the text: as §2, §1

Series [4] has as its target NF-kB p65 (Rel A) homodimer (UniProt Q04206 Q04206:1-551).
Series [5] has as its target T1, NF-kB p50 homodimer. The experiment in a line: sub-nM binding affinity. As to conditions: chain copies: 2 stated.

T1 sequence (P19838 1-433, one chain of several): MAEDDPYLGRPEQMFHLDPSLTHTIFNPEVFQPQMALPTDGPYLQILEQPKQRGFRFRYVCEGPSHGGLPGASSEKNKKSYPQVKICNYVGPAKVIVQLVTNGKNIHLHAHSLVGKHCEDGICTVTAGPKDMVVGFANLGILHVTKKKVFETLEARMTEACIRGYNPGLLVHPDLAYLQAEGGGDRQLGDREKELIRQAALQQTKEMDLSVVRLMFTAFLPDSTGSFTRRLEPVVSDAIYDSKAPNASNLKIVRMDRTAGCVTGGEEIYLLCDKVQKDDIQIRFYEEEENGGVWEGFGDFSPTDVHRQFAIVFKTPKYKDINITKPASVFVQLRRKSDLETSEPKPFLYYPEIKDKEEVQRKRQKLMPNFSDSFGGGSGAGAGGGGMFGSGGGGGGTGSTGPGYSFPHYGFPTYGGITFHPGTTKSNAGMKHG
Sequence of NF-kB p65 (Rel A) homodimer (Q04206 whole entry, one chain of several): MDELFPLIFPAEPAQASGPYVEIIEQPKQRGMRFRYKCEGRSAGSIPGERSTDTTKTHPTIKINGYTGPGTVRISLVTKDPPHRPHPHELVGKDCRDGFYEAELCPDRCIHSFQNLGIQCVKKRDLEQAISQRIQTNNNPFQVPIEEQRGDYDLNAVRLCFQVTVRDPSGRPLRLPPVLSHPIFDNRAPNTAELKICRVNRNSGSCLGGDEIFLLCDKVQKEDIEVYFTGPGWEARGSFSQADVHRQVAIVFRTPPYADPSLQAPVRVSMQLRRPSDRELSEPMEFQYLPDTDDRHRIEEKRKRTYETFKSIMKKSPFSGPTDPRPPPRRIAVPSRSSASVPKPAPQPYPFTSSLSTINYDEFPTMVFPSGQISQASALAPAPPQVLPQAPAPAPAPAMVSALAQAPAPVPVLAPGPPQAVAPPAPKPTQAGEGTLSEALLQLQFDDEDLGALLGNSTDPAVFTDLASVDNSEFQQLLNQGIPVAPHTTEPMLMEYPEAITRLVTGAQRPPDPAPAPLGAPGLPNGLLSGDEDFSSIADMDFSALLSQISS
Sequence of AP-1 c-Jun (P05412 whole entry, one chain of several): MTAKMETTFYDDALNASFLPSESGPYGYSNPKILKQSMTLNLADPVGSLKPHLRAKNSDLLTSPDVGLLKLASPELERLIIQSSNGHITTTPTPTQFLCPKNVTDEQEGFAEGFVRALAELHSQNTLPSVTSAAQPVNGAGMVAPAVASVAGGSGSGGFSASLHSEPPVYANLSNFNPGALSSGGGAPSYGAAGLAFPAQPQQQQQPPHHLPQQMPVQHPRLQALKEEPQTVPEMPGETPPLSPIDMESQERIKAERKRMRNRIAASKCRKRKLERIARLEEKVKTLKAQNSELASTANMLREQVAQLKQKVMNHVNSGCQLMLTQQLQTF

B1: Resynthesised bead thioaptamer (dsDNA)
DNA 1: CTGTGAGTCGACTGATGACGGT
DNA 2: ACCGTCATCAGTCGACTCACAG
modifications: PS 3' of lower-case bases, one strand
Consider B1, for which the binding result with NF-kB p50 homodimer [1] was “binds”.

B2: XBY-S2 (dsDNA)
DNA 1: CCAGTGACTCAGTG
DNA 2: CACTGAGTCACTGG
modifications: phosphorodithioates, 6 in total, 3' of T at S2 positions as printed (3 per strand)
Take B2: the binding result with AP-1 c-Jun was “binds”.

B3: Split-synthesis thioaptamer SEQ 6 (dsDNA)
DNA 1: TGTGCAGGGACTGATGACGGT
DNA 2: ACCGTCATCAGTCCCTGCACA
modifications: PS 3' of lower-case bases in tGTGcAGGGACTgAtGaCGGt, one strand
On to B3, for which the binding result with NF-kB p50 homodimer [2] is reported as “binds”.

B4: Split-synthesis thioaptamer SEQ 9 (dsDNA)
DNA 1: AGTTGCAGGTCAGGACCCATTT
DNA 2: AAATGGGTCCTGACCTGCAACT
modifications: PS 3' of lower-case bases in AGTTGcAGGtCaGgACCCAtTt, one strand
For B4, the binding result in the series with NF-kB p50 homodimer [3] is on record as “binds”.

B5: Split-synthesis thioaptamer SEQ 8 (dsDNA)
DNA 1: ATGCACATCTCAGGATGACGGT
DNA 2: ACCGTCATCCTGAGATGTGCAT
modifications: PS 3' of lower-case bases in AtGcAcAtCtCaGgAtGaCGGt, one strand
For B5, the binding result in the series with NF-kB p50 homodimer [3] is reported as “binds”.

B6: Split-synthesis thioaptamer SEQ 7 (dsDNA)
DNA 1: CTGTGCATCGAAGTTTGCATTT
DNA 2: AAATGCAAACTTCGATGCACAG
modifications: PS 3' of lower-case bases in CtGTGCatCGAaGTTtGCAtTt, one strand
B6: the binding result with NF-kB p50 homodimer [3] is given as “binds”.

B7: XBY-6 (dsDNA)
DNA 1: CCAGGAGATTCCAC
DNA 2: GTGGAATCTCCTGG
modifications: phosphorodithioate 3' of T9 and T10 of top strand and 3' of each T printed as S2T in bottom strand (4), 6 in total
Turning to B7, the values for the Kd (in series [4]; with NF-kB p50 homodimer [5]) were 1.4 nM and under 1 nM, respectively.
